# Data: patent US20260167699A1 (Chugai, published 2026)
# Biological target: T1, FcγRIIIa extracellular domain, C-terminal His tag (human, UniProt P08637 17-208)
# T1 construct: extracellular domain; also called 3a
# Test: SPR, binding activity relative to GpH7-A5/GpH7-B3/GpL16-k0 (=100)
# T1 sequence (P08637 other isoform, or with tags, fused parts or gaps): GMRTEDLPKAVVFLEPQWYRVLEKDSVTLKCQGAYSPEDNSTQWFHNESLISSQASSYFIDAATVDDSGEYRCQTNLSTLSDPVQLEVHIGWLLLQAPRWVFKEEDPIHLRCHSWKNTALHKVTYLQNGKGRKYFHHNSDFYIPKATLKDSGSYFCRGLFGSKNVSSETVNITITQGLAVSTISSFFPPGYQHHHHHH
row,He/Con 3a [%],Binder
1,61.9,"GpH7-A5/GpH7-B3 variant A327_05P/GpL16-k0 (antibody, human IgG1, kappa, He Ab; copies: 1 + 1 + 2) heavy 1: not shown heavy 2: not shown light: DIVMTQSPLSLPVTPGEPASISCQASESLVHSNRNTYLHWYLQKPGQSPQLLIYKVSNRFSGVPDRFSGSGSGTDFTLKISRVEAEDVGVYYCSQNTHVPPTFGQGTKVEIERTVAAPSVFIFPPSDEQLKSGTASVVCLLNNFYPREAKVQWKVDNALQSGNSQESVTEQDSKDSTYSLSSTLTLSKADYEKHKVYACEVTHQGLSSPVTKSFNRGEC"
2,101,"GpH7-A5/GpH7-B3 variant A330_07I/GpL16-k0 (antibody, human IgG1, kappa, He Ab; copies: 1 + 1 + 2) heavy 1: not shown heavy 2: not shown light: DIVMTQSPLSLPVTPGEPASISCQASESLVHSNRNTYLHWYLQKPGQSPQLLIYKVSNRFSGVPDRFSGSGSGTDFTLKISRVEAEDVGVYYCSQNTHVPPTFGQGTKVEIERTVAAPSVFIFPPSDEQLKSGTASVVCLLNNFYPREAKVQWKVDNALQSGNSQESVTEQDSKDSTYSLSSTLTLSKADYEKHKVYACEVTHQGLSSPVTKSFNRGEC"
3,144,"GpH7-A5/GpH7-B3 variant A330_04F/GpL16-k0 (antibody, human IgG1, kappa, He Ab; copies: 1 + 1 + 2) heavy 1: not shown heavy 2: not shown light: DIVMTQSPLSLPVTPGEPASISCQASESLVHSNRNTYLHWYLQKPGQSPQLLIYKVSNRFSGVPDRFSGSGSGTDFTLKISRVEAEDVGVYYCSQNTHVPPTFGQGTKVEIERTVAAPSVFIFPPSDEQLKSGTASVVCLLNNFYPREAKVQWKVDNALQSGNSQESVTEQDSKDSTYSLSSTLTLSKADYEKHKVYACEVTHQGLSSPVTKSFNRGEC"
4,52.6,"GpH7-A5/GpH7-B3 variant A327_20W/GpL16-k0 (antibody, human IgG1, kappa, He Ab; copies: 1 + 1 + 2) heavy 1: not shown heavy 2: not shown light: DIVMTQSPLSLPVTPGEPASISCQASESLVHSNRNTYLHWYLQKPGQSPQLLIYKVSNRFSGVPDRFSGSGSGTDFTLKISRVEAEDVGVYYCSQNTHVPPTFGQGTKVEIERTVAAPSVFIFPPSDEQLKSGTASVVCLLNNFYPREAKVQWKVDNALQSGNSQESVTEQDSKDSTYSLSSTLTLSKADYEKHKVYACEVTHQGLSSPVTKSFNRGEC"
5,67.3,"GpH7-A5/GpH7-B3 variant A330_18N/GpL16-k0 (antibody, human IgG1, kappa, He Ab; copies: 1 + 1 + 2) heavy 1: not shown heavy 2: not shown light: DIVMTQSPLSLPVTPGEPASISCQASESLVHSNRNTYLHWYLQKPGQSPQLLIYKVSNRFSGVPDRFSGSGSGTDFTLKISRVEAEDVGVYYCSQNTHVPPTFGQGTKVEIERTVAAPSVFIFPPSDEQLKSGTASVVCLLNNFYPREAKVQWKVDNALQSGNSQESVTEQDSKDSTYSLSSTLTLSKADYEKHKVYACEVTHQGLSSPVTKSFNRGEC"
6,54,"GpH7-A5/GpH7-B3 variant A327_19Q/GpL16-k0 (antibody, human IgG1, kappa, He Ab; copies: 1 + 1 + 2) heavy 1: not shown heavy 2: not shown light: DIVMTQSPLSLPVTPGEPASISCQASESLVHSNRNTYLHWYLQKPGQSPQLLIYKVSNRFSGVPDRFSGSGSGTDFTLKISRVEAEDVGVYYCSQNTHVPPTFGQGTKVEIERTVAAPSVFIFPPSDEQLKSGTASVVCLLNNFYPREAKVQWKVDNALQSGNSQESVTEQDSKDSTYSLSSTLTLSKADYEKHKVYACEVTHQGLSSPVTKSFNRGEC"
7,102,"GpH7-A5/GpH7-B3 variant A330_16H/GpL16-k0 (antibody, human IgG1, kappa, He Ab; copies: 1 + 1 + 2) heavy 1: not shown heavy 2: not shown light: DIVMTQSPLSLPVTPGEPASISCQASESLVHSNRNTYLHWYLQKPGQSPQLLIYKVSNRFSGVPDRFSGSGSGTDFTLKISRVEAEDVGVYYCSQNTHVPPTFGQGTKVEIERTVAAPSVFIFPPSDEQLKSGTASVVCLLNNFYPREAKVQWKVDNALQSGNSQESVTEQDSKDSTYSLSSTLTLSKADYEKHKVYACEVTHQGLSSPVTKSFNRGEC"
8,56.4,"GpH7-A5/GpH7-B3 variant A330_09D/GpL16-k0 (antibody, human IgG1, kappa, He Ab; copies: 1 + 1 + 2) heavy 1: not shown heavy 2: not shown light: DIVMTQSPLSLPVTPGEPASISCQASESLVHSNRNTYLHWYLQKPGQSPQLLIYKVSNRFSGVPDRFSGSGSGTDFTLKISRVEAEDVGVYYCSQNTHVPPTFGQGTKVEIERTVAAPSVFIFPPSDEQLKSGTASVVCLLNNFYPREAKVQWKVDNALQSGNSQESVTEQDSKDSTYSLSSTLTLSKADYEKHKVYACEVTHQGLSSPVTKSFNRGEC"
9,62.8,"GpH7-A5/GpH7-B3 variant A327_18N/GpL16-k0 (antibody, human IgG1, kappa, He Ab; copies: 1 + 1 + 2) heavy 1: not shown heavy 2: not shown light: DIVMTQSPLSLPVTPGEPASISCQASESLVHSNRNTYLHWYLQKPGQSPQLLIYKVSNRFSGVPDRFSGSGSGTDFTLKISRVEAEDVGVYYCSQNTHVPPTFGQGTKVEIERTVAAPSVFIFPPSDEQLKSGTASVVCLLNNFYPREAKVQWKVDNALQSGNSQESVTEQDSKDSTYSLSSTLTLSKADYEKHKVYACEVTHQGLSSPVTKSFNRGEC"
10,122,"GpH7-A5/GpH7-B3 variant A330_08L/GpL16-k0 (antibody, human IgG1, kappa, He Ab; copies: 1 + 1 + 2) heavy 1: not shown heavy 2: not shown light: DIVMTQSPLSLPVTPGEPASISCQASESLVHSNRNTYLHWYLQKPGQSPQLLIYKVSNRFSGVPDRFSGSGSGTDFTLKISRVEAEDVGVYYCSQNTHVPPTFGQGTKVEIERTVAAPSVFIFPPSDEQLKSGTASVVCLLNNFYPREAKVQWKVDNALQSGNSQESVTEQDSKDSTYSLSSTLTLSKADYEKHKVYACEVTHQGLSSPVTKSFNRGEC"
11,122,"GpH7-A5/GpH7-B3 variant A330_15Y/GpL16-k0 (antibody, human IgG1, kappa, He Ab; copies: 1 + 1 + 2) heavy 1: not shown heavy 2: not shown light: DIVMTQSPLSLPVTPGEPASISCQASESLVHSNRNTYLHWYLQKPGQSPQLLIYKVSNRFSGVPDRFSGSGSGTDFTLKISRVEAEDVGVYYCSQNTHVPPTFGQGTKVEIERTVAAPSVFIFPPSDEQLKSGTASVVCLLNNFYPREAKVQWKVDNALQSGNSQESVTEQDSKDSTYSLSSTLTLSKADYEKHKVYACEVTHQGLSSPVTKSFNRGEC"
12,139,"GpH7-A5/GpH7-B3 variant A330_06M/GpL16-k0 (antibody, human IgG1, kappa, He Ab; copies: 1 + 1 + 2) heavy 1: not shown heavy 2: not shown light: DIVMTQSPLSLPVTPGEPASISCQASESLVHSNRNTYLHWYLQKPGQSPQLLIYKVSNRFSGVPDRFSGSGSGTDFTLKISRVEAEDVGVYYCSQNTHVPPTFGQGTKVEIERTVAAPSVFIFPPSDEQLKSGTASVVCLLNNFYPREAKVQWKVDNALQSGNSQESVTEQDSKDSTYSLSSTLTLSKADYEKHKVYACEVTHQGLSSPVTKSFNRGEC"
13,70.5,"GpH7-A5/GpH7-B3 variant A327_10E/GpL16-k0 (antibody, human IgG1, kappa, He Ab; copies: 1 + 1 + 2) heavy 1: not shown heavy 2: not shown light: DIVMTQSPLSLPVTPGEPASISCQASESLVHSNRNTYLHWYLQKPGQSPQLLIYKVSNRFSGVPDRFSGSGSGTDFTLKISRVEAEDVGVYYCSQNTHVPPTFGQGTKVEIERTVAAPSVFIFPPSDEQLKSGTASVVCLLNNFYPREAKVQWKVDNALQSGNSQESVTEQDSKDSTYSLSSTLTLSKADYEKHKVYACEVTHQGLSSPVTKSFNRGEC"
14,85.8,"GpH7-A5/GpH7-B3 variant A330_14T/GpL16-k0 (antibody, human IgG1, kappa, He Ab; copies: 1 + 1 + 2) heavy 1: not shown heavy 2: not shown light: DIVMTQSPLSLPVTPGEPASISCQASESLVHSNRNTYLHWYLQKPGQSPQLLIYKVSNRFSGVPDRFSGSGSGTDFTLKISRVEAEDVGVYYCSQNTHVPPTFGQGTKVEIERTVAAPSVFIFPPSDEQLKSGTASVVCLLNNFYPREAKVQWKVDNALQSGNSQESVTEQDSKDSTYSLSSTLTLSKADYEKHKVYACEVTHQGLSSPVTKSFNRGEC"
15,98.8,"GpH7-A5/GpH7-B3 variant A330_03V/GpL16-k0 (antibody, human IgG1, kappa, He Ab; copies: 1 + 1 + 2) heavy 1: not shown heavy 2: not shown light: DIVMTQSPLSLPVTPGEPASISCQASESLVHSNRNTYLHWYLQKPGQSPQLLIYKVSNRFSGVPDRFSGSGSGTDFTLKISRVEAEDVGVYYCSQNTHVPPTFGQGTKVEIERTVAAPSVFIFPPSDEQLKSGTASVVCLLNNFYPREAKVQWKVDNALQSGNSQESVTEQDSKDSTYSLSSTLTLSKADYEKHKVYACEVTHQGLSSPVTKSFNRGEC"
16,87.3,"GpH7-A5/GpH7-B3 variant A330_01G/GpL16-k0 (antibody, human IgG1, kappa, He Ab; copies: 1 + 1 + 2) heavy 1: not shown heavy 2: not shown light: DIVMTQSPLSLPVTPGEPASISCQASESLVHSNRNTYLHWYLQKPGQSPQLLIYKVSNRFSGVPDRFSGSGSGTDFTLKISRVEAEDVGVYYCSQNTHVPPTFGQGTKVEIERTVAAPSVFIFPPSDEQLKSGTASVVCLLNNFYPREAKVQWKVDNALQSGNSQESVTEQDSKDSTYSLSSTLTLSKADYEKHKVYACEVTHQGLSSPVTKSFNRGEC"
17,82.8,"GpH7-A5/GpH7-B3 variant A330_10E/GpL16-k0 (antibody, human IgG1, kappa, He Ab; copies: 1 + 1 + 2) heavy 1: not shown heavy 2: not shown light: DIVMTQSPLSLPVTPGEPASISCQASESLVHSNRNTYLHWYLQKPGQSPQLLIYKVSNRFSGVPDRFSGSGSGTDFTLKISRVEAEDVGVYYCSQNTHVPPTFGQGTKVEIERTVAAPSVFIFPPSDEQLKSGTASVVCLLNNFYPREAKVQWKVDNALQSGNSQESVTEQDSKDSTYSLSSTLTLSKADYEKHKVYACEVTHQGLSSPVTKSFNRGEC"
18,66.7,"GpH7-A5/GpH7-B3 variant A327_13S/GpL16-k0 (antibody, human IgG1, kappa, He Ab; copies: 1 + 1 + 2) heavy 1: not shown heavy 2: not shown light: DIVMTQSPLSLPVTPGEPASISCQASESLVHSNRNTYLHWYLQKPGQSPQLLIYKVSNRFSGVPDRFSGSGSGTDFTLKISRVEAEDVGVYYCSQNTHVPPTFGQGTKVEIERTVAAPSVFIFPPSDEQLKSGTASVVCLLNNFYPREAKVQWKVDNALQSGNSQESVTEQDSKDSTYSLSSTLTLSKADYEKHKVYACEVTHQGLSSPVTKSFNRGEC"
19,77.3,"GpH7-A5/GpH7-B3 variant A330_12R/GpL16-k0 (antibody, human IgG1, kappa, He Ab; copies: 1 + 1 + 2) heavy 1: not shown heavy 2: not shown light: DIVMTQSPLSLPVTPGEPASISCQASESLVHSNRNTYLHWYLQKPGQSPQLLIYKVSNRFSGVPDRFSGSGSGTDFTLKISRVEAEDVGVYYCSQNTHVPPTFGQGTKVEIERTVAAPSVFIFPPSDEQLKSGTASVVCLLNNFYPREAKVQWKVDNALQSGNSQESVTEQDSKDSTYSLSSTLTLSKADYEKHKVYACEVTHQGLSSPVTKSFNRGEC"
20,86,"GpH7-A5/GpH7-B3 variant A327_09D/GpL16-k0 (antibody, human IgG1, kappa, He Ab; copies: 1 + 1 + 2) heavy 1: not shown heavy 2: not shown light: DIVMTQSPLSLPVTPGEPASISCQASESLVHSNRNTYLHWYLQKPGQSPQLLIYKVSNRFSGVPDRFSGSGSGTDFTLKISRVEAEDVGVYYCSQNTHVPPTFGQGTKVEIERTVAAPSVFIFPPSDEQLKSGTASVVCLLNNFYPREAKVQWKVDNALQSGNSQESVTEQDSKDSTYSLSSTLTLSKADYEKHKVYACEVTHQGLSSPVTKSFNRGEC"
21,54,"GpH7-A5/GpH7-B3 variant A327_06M/GpL16-k0 (antibody, human IgG1, kappa, He Ab; copies: 1 + 1 + 2) heavy 1: not shown heavy 2: not shown light: DIVMTQSPLSLPVTPGEPASISCQASESLVHSNRNTYLHWYLQKPGQSPQLLIYKVSNRFSGVPDRFSGSGSGTDFTLKISRVEAEDVGVYYCSQNTHVPPTFGQGTKVEIERTVAAPSVFIFPPSDEQLKSGTASVVCLLNNFYPREAKVQWKVDNALQSGNSQESVTEQDSKDSTYSLSSTLTLSKADYEKHKVYACEVTHQGLSSPVTKSFNRGEC"
22,91.8,"GpH7-A5/GpH7-B3 variant A330_11K/GpL16-k0 (antibody, human IgG1, kappa, He Ab; copies: 1 + 1 + 2) heavy 1: not shown heavy 2: not shown light: DIVMTQSPLSLPVTPGEPASISCQASESLVHSNRNTYLHWYLQKPGQSPQLLIYKVSNRFSGVPDRFSGSGSGTDFTLKISRVEAEDVGVYYCSQNTHVPPTFGQGTKVEIERTVAAPSVFIFPPSDEQLKSGTASVVCLLNNFYPREAKVQWKVDNALQSGNSQESVTEQDSKDSTYSLSSTLTLSKADYEKHKVYACEVTHQGLSSPVTKSFNRGEC"
